Assay [1] has as its target human CD47 overexpressed on CHO cells (human) (UniProt Q08722). Kind of assay: flow cytometry competition on CHO-hCD47 cells against 200 nM mouse Fc-labelled SIRPα. (In flow cytometry, cells or beads pass a laser one at a time.)
Assay [2] has the same target. The assay is described as above. The source holds these as a separate data set.

Read-outs that look alike come from different tables or passages of the source.

B1: AB6.12, control humanized anti-CD47 antibody transiently expressed in 293 HEK cells (antibody, from another filing, V domains shown)
VH: QMQLVQSGAEVKKTGSSVKVSCKASGFNIKDYYLHWVRQAPGQALEWMGWIDPDQGDTEYAQKFQDRVTITRDRSMSTAYMELSSLRSEDTAMYYCNAAYGSSSYPMDYWGQGTTVTV
VL: NIQMTQSPSAMSASVGDRVTITCKASQDIHRYLSWFQQKPGKVPKHLIYRANRLVSGVPSRFSGSGSGTEFTLTISSLQPEDFATYYCLQYDEFPYTFGGGTKVEIK
The IC50 is the concentration needed to halve the response being measured. A lower IC50 goes with greater potency. B1: the IC50 in assay [1] came to 1.77 nM; in assay [2], 3.38 nM.

The values above are taken from US20200181259A1.
